PMC4516351, “Est16, a New Esterase Isolated from a Metagenomic Library of a Microbial Consortium Specializing in Diesel Oil Degradation” (PLoS ONE, 2015)

Experiments:
Assay in all cases: purified protein
Assay type in all cases: biochemical, uncultured bacterium
[1] = tested on: T1, CCCC(=O)Oc1ccc([N+](=O)[O-])cc1; settings: 50 mM Tris-HCl pH 8.0, 30°C, 0.3% (v/v) triton X-100, 15 nM enzyme
T1 construct: full-length ORF (906 bp, 302 residues), pET28a, N-terminal His6-tag and thrombin site, tag cutting not mentioned; E. coli BL21(DE3); IMAC and SEC

[2] = tested on: T2, CCCCC(=O)Oc1ccc([N+](=O)[O-])cc1; settings: 50 mM Tris-HCl pH 8.0, 30°C, 0.3% (v/v) triton X-100, 15 nM enzyme
T2 construct: full-length ORF (906 bp, 302 residues), pET28a, N-terminal His6-tag and thrombin site, tag cutting not mentioned; E. coli BL21(DE3); IMAC and SEC

[3] = tested on: T3, CCCCCCCC(=O)Oc1ccc([N+](=O)[O-])cc1; settings: 50 mM Tris-HCl pH 8.0, 30°C, 0.3% (v/v) triton X-100, 15 nM enzyme
T3 construct: full-length ORF (906 bp, 302 residues), pET28a, N-terminal His6-tag and thrombin site, tag cutting not mentioned; E. coli BL21(DE3); IMAC and SEC

[4] = tested on: T4, CCCCCCCCCC(=O)Oc1ccc([N+](=O)[O-])cc1; settings: 50 mM Tris-HCl pH 8.0, 30°C, 0.3% (v/v) triton X-100, 15 nM enzyme
T4 construct: full-length ORF (906 bp, 302 residues), pET28a, N-terminal His6-tag and thrombin site, tag cutting not mentioned; E. coli BL21(DE3); IMAC and SEC

[5] = tested on: T5, CCCCCCCCCCCC(=O)Oc1ccc([N+](=O)[O-])cc1; settings: 50 mM Tris-HCl pH 8.0, 30°C, 0.3% (v/v) triton X-100, 50 nM enzyme
T5 construct: full-length ORF (906 bp, 302 residues), pET28a, N-terminal His6-tag and thrombin site, tag cutting not mentioned; E. coli BL21(DE3); IMAC and SEC

Est16 (uncultured bacterium)
Km [1]: 225.1 ± 31.8 µM | Vmax [1]: 206 µM/min | kcat [1]: 220 ± 9.72 s⁻¹ | kcat/Km [1]: 998000 ± 142000 M⁻¹ s⁻¹ | Km [2]: 320.4 ± 32.5 µM | Vmax [2]: 197 µM/min | kcat [2]: 211 ± 7.26 s⁻¹ | kcat/Km [2]: 665000 ± 66700 M⁻¹ s⁻¹ | Km [3]: 628.6 ± 101.4 µM | Vmax [3]: 128 µM/min | kcat [3]: 137 ± 9.19 s⁻¹ | kcat/Km [3]: 223000 ± 36700 M⁻¹ s⁻¹ | Km [4]: 1066.0 ± 116.9 µM | Vmax [4]: 82.7 µM/min | kcat [4]: 88.4 ± 4.81 s⁻¹ | kcat/Km [4]: 83300 ± 10000 M⁻¹ s⁻¹ | Km [5]: 969.5 ± 42.5 µM | Vmax [5]: 22.9 µM/min | kcat [5]: 24.5 ± 0.535 s⁻¹ | kcat/Km [5]: 25000 ± 1670 M⁻¹ s⁻¹
